Measurements taken from US20140378382A1.

Tests used:
[1] = target: PTHR-1 (species and cells not stated for the assay) (Homo sapiens (Human)) (UniProt Q03431); test: cell-based or functional assay
[2] = target: parathyroid hormone receptor-2 (PTHR-2); test: cell-based or functional assay

Sequence of PTHR-1 (species and cells not stated for the assay) (Homo sapiens (Human)) (Q03431 27-593 limits assumed, form in doubt): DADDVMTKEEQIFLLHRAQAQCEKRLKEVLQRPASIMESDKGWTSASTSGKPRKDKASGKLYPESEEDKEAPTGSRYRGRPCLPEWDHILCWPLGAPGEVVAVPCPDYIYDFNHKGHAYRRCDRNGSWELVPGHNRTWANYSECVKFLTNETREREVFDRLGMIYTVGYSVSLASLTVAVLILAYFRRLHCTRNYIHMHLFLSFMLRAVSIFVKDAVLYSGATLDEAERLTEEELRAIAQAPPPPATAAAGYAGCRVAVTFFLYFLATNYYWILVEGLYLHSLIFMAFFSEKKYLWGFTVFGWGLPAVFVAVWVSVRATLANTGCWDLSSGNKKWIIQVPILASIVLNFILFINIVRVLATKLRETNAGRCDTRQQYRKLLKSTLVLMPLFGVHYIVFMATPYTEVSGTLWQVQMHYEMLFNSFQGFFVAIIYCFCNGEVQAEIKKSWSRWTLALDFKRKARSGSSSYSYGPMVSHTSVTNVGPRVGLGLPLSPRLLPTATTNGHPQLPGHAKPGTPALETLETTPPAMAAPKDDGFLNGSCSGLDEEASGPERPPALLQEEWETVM

## hPTHrP(1-36) (from UniProt P12272 37-72) (peptide)
[1]
  cAMP response PTH1R/PTH2R: 27
[2]
  cAMP response PTH2R/PTH1R: 0.04

## hTIP(1-39) (from UniProt Q96A98 62-100) (peptide)
[1]
  cAMP response PTH1R/PTH2R: 0.01
[2]
  cAMP response PTH2R/PTH1R: 165
